Assay results reported in PMC10620215.

Molecular target: EcbAgaN (Escherichia coli long-B pAgo-associated nuclease), N-terminal 6xHis tag (Escherichia coli)
Experiment: SEC-MALS; EcbAgaN, already purified by SEC, loaded onto Superdex 200 10/300 GL in 20 mM Tris-HCl pH 7.5, 250 mM NaCl, 0.5 mL/min; BSA monomer as standard

Q: How did the stoichiometry N turn out when “EcbAgaN (Escherichia coli long-B pAgo-associated nuclease), N-terminal 6xHis tag (enzyme)” was run?
A: 2
